Assay results: US20230293638A1 (Eli Lilly, published 2023)
Substitutions are numbered along the chain they refer to. Numbered stars: 1 amine (or outer) side, 2 acyl side, 3 side chain; on linkers, the order of the positions; unused ones are H or OH. Square brackets hold non-standard residues; d marks the D form. Side chains are listed from the residue outwards. Ends that are not written are not given here. * marks the point of attachment. C18 diacid = O=C(O)CCCCCCCCCCCCCCCCC(=O)*; αMePhe(2-F) = C[C@](N)(Cc1ccccc1F)C(=O)O; γGlu = O=C(O)[C@H](CCC(=O)[*:2])N[*:1]; αMeL = CC(C)C[C@](C)(N)C(=O)O; AEEA = NCCOCCOCC(=O)O; Aib = CC(C)(N)C(=O)O

Biological target: human GLP-1 receptor (human, UniProt P43220 24-463)
Assay: cell-based or functional assay

B1: Peptide 174 (peptide)
peptide: YXEGTXTSDHSIXLDEKAQXTFIXYLIEGGPSSGAPPPS
modifications: Aib2; αMeF(2F)6; αMeL13; K17((2-[2-(2-Amino-ethoxy)-ethoxy]-acetyl)2-CO-(CH2)18-CO2H); Aib20; D-Glu24; C-terminal NH2
With B1 the “hGLPIR cAMP EC50 ratio” value was 0.0968.

B2: Peptide 183 (peptide)
peptide: B1 peptide with H10L, T21E
modifications: Aib2; αMeF(2F)6; αMeL13; K17((2-[2-(2-Amino-ethoxy)-ethoxy]-acetyl)2-(γGlu)-CO-(CH2)18-CO2H); Aib20; D-Glu24; C-terminal NH2
For B2, the “hGLPIR cAMP EC50 ratio” value was 0.843.

B3: Peptide 206 (peptide)
peptide: B1 peptide with H10X, T21E
modifications: Aib2; αMeF(2F)6; 4Pal10; αMeL13; K17((2-[2-(2-Amino-ethoxy)-ethoxy]-acetyl)2-CO-(CH2)18-CO2H); Aib20; D-Glu24; C-terminal NH2
For B3, the “hGLPIR cAMP EC50 ratio” value was 1.42.

B4: Peptide 205 (peptide)
peptide: B1 peptide with H10X, T21E
modifications: Aib2; αMeF(2F)6; 4Pal10; αMeL13; K17((2-[2-(2-Amino-ethoxy)-ethoxy]-acetyl)2-CO-(CH2)16-CO2H); Aib20; D-Glu24; C-terminal NH2
In the case of B4, the “hGLPIR cAMP EC50 ratio” value is reported as 1.46.

B5: Peptide 202 (peptide)
peptide: B1 peptide with H10X, E16K, T21E
modifications: Aib2; αMeF(2F)6; 4Pal10; αMeL13; K17((2-[2-(2-Amino-ethoxy)-ethoxy]-acetyl)-(γGlu)-(2-[2-(2-Amino-ethoxy)-ethoxy]-acetyl)-CO-(CH2)18-CO2H); Aib20; D-Glu24; C-terminal NH2
In the case of B5, the “hGLPIR cAMP EC50 ratio” value is reported as 0.712.

B6: Peptide 176 (peptide)
peptide: B1 peptide
modifications: Aib2; αMeF(2F)6; αMeL13; K17((2-[2-(2-Amino-ethoxy)-ethoxy]-acetyl)2-(εK)-CO-(CH2)16-CO2H); Aib20; D-Glu24; C-terminal NH2
With B6 the “hGLPIR cAMP EC50 ratio” value was 0.0427.

B7: Peptide 181 (peptide)
peptide: B1 peptide with H10X, T21E
modifications: Aib2; αMeF(2F)6; 3Pal10; αMeL13; K17((2-[2-(2-Amino-ethoxy)-ethoxy]-acetyl)2-(γGlu)-CO-(CH2)18-CO2H); Aib20; D-Glu24; C-terminal NH2
B7 was tested, and the “hGLPIR cAMP EC50 ratio” value was 0.718.

B8: Peptide 182 (peptide)
peptide: B1 peptide with H10X, T21E
modifications: Aib2; αMeF(2F)6; 4Pal10; αMeL13; K17((2-[2-(2-Amino-ethoxy)-ethoxy]-acetyl)2-(γGlu)-CO-(CH2)18-CO2H); Aib20; D-Glu24; C-terminal NH2
For B8, the “hGLPIR cAMP EC50 ratio” value was 0.873.

B9: Peptide 189 (peptide)
peptide: B1 peptide with H10X, T21E
modifications: Aib2; αMeF(2F)6; 4Pal10; αMeL13; K17((2-[2-(2-Amino-ethoxy)-ethoxy]-acetyl)2-(γGlu)-CO-(CH2)18-CO2H); Aib20; Aib24; C-terminal NH2
For B9, the “hGLPIR cAMP EC50 ratio” value was 0.668.

B10: Peptide 178 (peptide)
peptide: B1 peptide with T21H
modifications: Aib2; αMeF(2F)6; αMeL13; K17((2-[2-(2-Amino-ethoxy)-ethoxy]-acetyl)2-(γGlu)-CO-(CH2)14-CO2H); Aib20; D-Glu24; C-terminal NH2
B10 was tested, and the “hGLPIR cAMP EC50 ratio” value was 0.00349.

B11: Peptide 179 (peptide)
peptide: Y[Aib]EGT[αMePhe(2-F)]TSDHSI[αMeL]LDEK([AEEA-AEEA-γGlu-C18 diacid])AQ[Aib]HFI[dE]YLIEGGPSSG-NH2
modifications: N-terminus assumed
SMILES: CC[C@H](C)[C@H](NC(=O)[C@H](CC(C)C)NC(=O)[C@H](Cc1ccc(O)cc1)NC(=O)[C@@H](CCC(=O)O)NC(=O)[C@@H](NC(=O)[C@H](Cc1ccccc1)NC(=O)[C@H](Cc1c[nH]cn1)NC(=O)C(C)(C)NC(=O)[C@H](CCC(N)=O)NC(=O)[C@H](C)NC(=O)[C@H](CCCCNC(=O)COCCOCCNC(=O)COCCOCCNC(=O)CC[C@H](NC(=O)CCCCCCCCCCCCCCCCC(=O)O)C(=O)O)NC(=O)[C@H](CCC(=O)O)NC(=O)[C@H](CC(=O)O)NC(=O)[C@H](CC(C)C)NC(=O)[C@](C)(CC(C)C)NC(=O)[C@@H](NC(=O)[C@H](CO)NC(=O)[C@H](Cc1c[nH]cn1)NC(=O)[C@H](CC(=O)O)NC(=O)[C@H](CO)NC(=O)[C@@H](NC(=O)[C@](C)(Cc1ccccc1F)NC(=O)[C@@H](NC(=O)CNC(=O)[C@H](CCC(=O)O)NC(=O)C(C)(C)NC(=O)[C@@H](N)Cc1ccc(O)cc1)[C@@H](C)O)[C@@H](C)O)[C@@H](C)CC)[C@@H](C)CC)C(=O)N[C@@H](CCC(=O)O)C(=O)NCC(=O)NCC(=O)N1CCC[C@H]1C(=O)N[C@@H](CO)C(=O)N[C@@H](CO)C(=O)NCC(N)=O
With B11 the “hGLPIR cAMP EC50 ratio” value was 0.0169.
